For orientation: Km means the concentration of substrate that gives half-maximal velocity. In general, kcat refers to the maximal rate divided by the concentration of active sites. A word on the kcat/Km: it is the second-order rate constant that governs catalysis at low substrate concentration.

Here are results for three substances from PMC5674511, “Increase of enzyme activity through specific covalent modification with fragments” (Chemical Science, 2017).

In data set [1] the test system is T1, CC(=O)N[C@H]1[C@H](Oc2ccc3c(C)cc(=O)oc3c2)O[C@H](CO)[C@@H](O)[C@@H]1O.
T1 construct: recombinant purified enzyme
Briefly: fluorescence, 4MU release, Michaelis-Menten. The class given is biochemical, Bacteroides thetaiotaomicron.

Data set [2] shares this test system. Briefly: fluorescence, 4MU release, Michaelis-Menten. The class given is biochemical, Bacteroides thetaiotaomicron. To be noted: unmodified BtGH84_TM (no tethered fragment). An excerpt: fluorescence, 4MU release, Michaelis-Menten on BtGH84

Turning to “BtGH84 (Bacteroides thetaiotaomicron VPI-5482; C441S/C675S/Y158F/Y571C)”, in data set [1] (unmodified BtGH84_QM), the Km came to 11.215 ± 3.274 mM and the kcat is 77 ± 15 s⁻¹.
For the substance “BtGH84 (Bacteroides thetaiotaomicron VPI-5482; C441S/C675S/Y571C)”, in data set [2], the Km came to 4.68 ± 0.22 mM, the kcat worked out at 127 ± 6 s⁻¹ and the catalytic efficiency (kcat/Km) was determined as 27200 ± 2460 M⁻¹ s⁻¹.
Consider “BtGH84 (Bacteroides thetaiotaomicron VPI-5482; Y158F)”, for which, in data set [1] (unmodified BtGH84_Y137F), the Km was 6.61 ± 1.282 mM and the kcat was 87 ± 4 s⁻¹.
